In patent US12456543B2, “Enzymes” (UNIVERSITY COURT OF THE UNIVERSITY OF ST ANDREWS, priority 2018, dated 2025):

Key:
[1] = Halogenase activity of Dsg205 and Dsg701 against 600 member compound library, LC-MSMS assay; format: biochemical; details: 600 member compound library
[2] = Halogenation of the initial 300 compound library by purified halogenase, LCMS; format: biochemical; details: out of 300 compounds
[3] = engineered to expand substrate scope; cited from earlier work

| Molecule | members of the library halogenated (substrates accepted) [1] | compounds of the initial 300 compound library halogenated [2] | yields after directed evolution and rational design [3] |
| --- | --- | --- | --- |
| Dsg205: halogenase from Trichoderma virens Gy29-8 GenBank: EHK23009.1 (protein, left off: small tags and cut ends) MAIPEKCTVLVVGGGPAGSYAAAALAREGIDTVILEADKFPRYHIGESMLASMRHFLRFIDVDSVFDSYGFTKKVGAAFKLNPKKREGYTDFLAAGGPENYAWNVVRSEADQLLFQHAAKSGAKAFDGVQVKSINFIDVPYKGPGQLPHDYPGRPVSATYVQKDDNTPREIKFDYIIDASGRVGILSTKHLKNRKYNQGLKNVATWGYWKGAGAYGKGTPRENSPFFEALQDESGWAWLIPLHNGTASVGIVMNQKMSVERKTQAGSPDSKTFYLDCLKELAPDLTKLMENGELITDIKSAADYSYSASGYAIPYARIAGDAGCFIDPYFSSGVHLAFVGGLSAAATIAAAIRGDCSEEAAADWHSKKIADAYIRFLLVVLSAYRQIRSQEEPVLSDINEDNFDRAFAFFRPVIQGIADVDTKLSQDELRKTLEFCSNAFEPVKPEDRTAMLEKLGKDPATAYQVDLSDQQRTVVDHIRARQMMRTEDTININSFGTDSINGFVPNLKRGELGLVPAKV | 33 | 3 | – |
| PrnA: tryptophan 7-halogenase, first step in pyrrolnitrin biosynthesis (protein, UniProt P95480 1-538, looked up) Tryptophan 7-halogenase PrnA: MNKPIKNIVIVGGGTAGWMAASYLVRALQQQANITLIESAAIPRIGVGEATIPSLQKVFFDFLGIPEREWMPQVNGAFKAAIKFVNWRKSPDPSRDDHFYHLFGNVPNCDGVPLTHYWLRKREQGFQQPMEYACYPQPGALDGKLAPCLSDGTRQMSHAWHFDAHLVADFLKRWAVERGVNRVVDEVVDVRLNNRGYISNLLTKEGRTLEADLFIDCSGMRGLLINQALKEPFIDMSDYLLCDSAVASAVPNDDARDGVEPYTSSIAMNSGWTWKIPMLGRFGSGYVFSSHFTSRDQATADFLKLWGLSDNQPLNQIKFRVGRNKRAWVNNCVSIGLSSCFLEPLESTGIYFIYAALYQLVKHFPDTSFDPRLSDAFNAEIVHMFDDCRDFVQAHYFTTSRDDTPFWLANRHDLRLSDAIKEKVQRYKAGLPLTTTSFDDSTYYETFDYEFKNFWLNGNYYCIFAGLGMLPDRSLPLLQHRPESIEKAEAMFASIRREAERLRTSLPTNYDYLRSLRDGDAGLSRGQRGPKLAAQESL | – | – | 15-65% |
